Results published in US20250339569A1 (3B PHARMACEUTICALS, published 2025).
Each block holds one binder with its values, some of them ahead of it. Starred links: 1 amine or outer side, 2 acyl side, 3 side chain; linkers in the order of their positions; H or OH if unused. Positions of bridges follow the written chain, without caps; N, C: chain ends. Non-standard residues stand in square brackets, D forms with d. Groups on a side chain read outwards from the residue. *: point of attachment. DOTA = O=C(O)CN1CCN(CC(=O)O)CCN(CC(=O)*)CCN(CC(=O)O)CC1; mXylylene = c1cc(C[*:1])cc(C[*:2])c1; NMeY = CN[C@@H](Cc1ccc(O)cc1)C(=O)O; Pen = CC(C)(S)[C@H](N)C(=O)O; APAc = not defined here; Apr = not defined here; AEEA = NCCOCCOCC(=O)O

Molecular target: human carbonic anhydrase 9 (CAIX) (human, UniProt Q16790 38-459)
Test: FACS competition on HT-29 cells against tracer 3BP-2776; pIC50 category A = pIC50 >8.0
Protocol: CAIX-expressing human HT-29 colorectal cancer cells (DSMZ, RRID: CVCL_0320) were cultured in McCoys's 5A modified medium (Biochrom, #F1015) including 10% fetal calf serum (FCS), 2 mM L-glutamine, 100 U/ml penicillin and 100 μg/mL streptomycin. Cells were detached with Accutase (Biolegend, #423201) and washed in FACS buffer (PBS including 1% FCS). Cells were diluted in FACS buffer to a final concentration of 500.000 cells per ml. 200 μL of the cell suspension were transferred to a u-shaped non-binding 96-well plate (Greiner) and cells were washed in ice-cold FACS buffer.
When biotinylated compounds were used an additional incubation step with 1 μg/mL APC-Streptavidin (Miltenyi; #130-106-791) in 50 μL FACS buffer for 30 minutes on ice was performed.
Cells were washed twice with ice-cold FACS buffer and analyzed in an Attune NxT flow cytometer (Thermo Fisher). Median fluorescence intensities (MFI) of the APC/Cy5-channel were calculated by Attune NxT software.

B1: 3BP-3492 (peptide)
peptide: Ac-VYCE[dP]DWLTWA[Pen]-NH2
modifications: linker 3-12 via mXylylene
SMILES: CC(=O)N[C@H](C(=O)N[C@@H](Cc1ccc(O)cc1)C(=O)N[C@H]1CSCc2cccc(c2)CSC(C)(C)[C@@H](C(N)=O)NC(=O)[C@H](C)NC(=O)[C@H](Cc2c[nH]c3ccccc23)NC(=O)[C@H]([C@@H](C)O)NC(=O)[C@H](CC(C)C)NC(=O)[C@H](Cc2c[nH]c3ccccc23)NC(=O)[C@H](CC(=O)O)NC(=O)[C@H]2CCCN2C(=O)[C@H](CCC(=O)O)NC1=O)C(C)C
notes: also called Ac-Val-Tyr-[Cys(3MeBn)-Glu-pro-Asp-Trp-Leu-Thr-Trp-Ala-Pen]-NH2
- pIC50: > 8 pic50

B2: 3BP-3571 (peptide)
peptide: Ac-VSCE[dP]DWLTWSC-NH2
modifications: linker 3-12 via mXylylene
SMILES: CC(=O)N[C@H](C(=O)N[C@@H](CO)C(=O)N[C@H]1CSCc2cccc(c2)CSC[C@@H](C(N)=O)NC(=O)[C@H](CO)NC(=O)[C@H](Cc2c[nH]c3ccccc23)NC(=O)[C@H]([C@@H](C)O)NC(=O)[C@H](CC(C)C)NC(=O)[C@H](Cc2c[nH]c3ccccc23)NC(=O)[C@H](CC(=O)O)NC(=O)[C@H]2CCCN2C(=O)[C@H](CCC(=O)O)NC1=O)C(C)C
notes: also called Ac-Val-Ser-[Cys(3MeBn)-Glu-pro-Asp-Trp-Leu-Thr-Trp-Ser-Cys]-NH2
- pIC50: > 8 pic50

B5: 3BP-3595 (peptide)
peptide: {DOTA-APAc}-VYCE[dP]SWLTWSC-NH2
modifications: linker 3-12 via mXylylene; reading uncertain
notes: also called DOTA-APAc-Val-Tyr-[Cys(3MeBn)-Glu-pro-Ser-Trp-Leu-Thr-Trp-Ser-Cys]-NH2
- pIC50: > 8 pic50

B7: 3BP-3599 (peptide)
peptide: {DOTA-APAc}-VYCE[dP]DWLTWRC-NH2
modifications: linker 3-12 via mXylylene; reading uncertain
notes: also called DOTA-APAc-Val-Tyr-[Cys(3MeBn)-Glu-pro-Asp-Trp-Leu-Thr-Trp-Arg-Cys]-NH2
- pIC50: > 8 pic50

B8: 3BP-3589 (peptide)
peptide: Ac-V[NMeY]CE[dP]DWLTWSC-NH2
modifications: linker 3-12 via mXylylene
SMILES: CC(=O)N[C@H](C(=O)N(C)[C@@H](Cc1ccc(O)cc1)C(=O)N[C@H]1CSCc2cccc(c2)CSC[C@@H](C(N)=O)NC(=O)[C@H](CO)NC(=O)[C@H](Cc2c[nH]c3ccccc23)NC(=O)[C@H]([C@@H](C)O)NC(=O)[C@H](CC(C)C)NC(=O)[C@H](Cc2c[nH]c3ccccc23)NC(=O)[C@H](CC(=O)O)NC(=O)[C@H]2CCCN2C(=O)[C@H](CCC(=O)O)NC1=O)C(C)C
notes: also called Ac-Val-Nmy-[Cys(3MeBn)-Glu-pro-Asp-Trp-Leu-Thr-Trp-Ser-Cys]-NH2
- pIC50: > 8 pic50

B11: 3BP-3596 (peptide)
peptide: {DOTA-APAc}-VYCE[dP]DFLTWSC-NH2
modifications: linker 3-12 via mXylylene; reading uncertain
notes: also called DOTA-APAc-Val-Tyr-[Cys(3MeBn)-Glu-pro-Asp-Phe-Leu-Thr-Trp-Ser-Cys]-NH2
- pIC50: > 8 pic50

B12: 3BP-3583 (peptide)
peptide: {DOTA-APAc}-VYCE[dP]DWLTWSC-NH2
modifications: linker 3-12 via mXylylene; reading uncertain
notes: also called DOTA-APAc-Val-Tyr-[Cys(3MeBn)-Glu-pro-Asp-Trp-Leu-Thr-Trp-Ser-Cys]-NH2
- pIC50: > 8 pic50

Now from value to binder:

- pIC50: > 8 pic50
B3: 3BP-3732 (peptide)
peptide: Ac-SYCE[dP]DWLTWE([Apr-AEEA-DOTA])C-NH2
modifications: linker 3-12 via 3MeBn; reading uncertain
notes: also called Ac-Ser-Tyr-[Cys(3MeBn)-Glu-pro-Asp-Trp-Leu-Thr-Trp-Glu(NH-Apr-O2Oc-DOTA′)-Cys]-NH2

- pIC50: > 8 pic50
B4: 3BP-3845 (peptide)
peptide: Ac-VRCE[dP]DWLTWEC-NH2
modifications: linker 3-12 via mXylylene; not fully specified (residue 11); also: indium complexed by DOTA
notes: also called Ac-Val-Arg-[Cys(3MeBn)-Glu-pro-Asp-Trp-Leu-Thr-Trp-Glu(NH-Apr-O2Oc-InDOTA′)-Cys]-NH2

- pIC50: > 8 pic50
B6: 3BP-3873 (peptide)
peptide: Ac-SYCE[dP]DWLTWE([Apr-DOTA])C-NH2
modifications: linker 3-12 via mXylylene; reading uncertain
notes: also called Ac-Ser-Tyr-[Cys(3MeBn)-Glu-pro-Asp-Trp-Leu-Thr-Trp-Glu(NH-Apr-DOTA′)-Cys]-NH2

- pIC50: > 8 pic50
B9: 3BP-3734 (peptide)
peptide: Ac-VRCE[dP]DWLTWE([Apr-AEEA-DOTA])C-NH2
modifications: linker 3-12 via 3MeBn; reading uncertain
notes: also called Ac-Val-Arg-[Cys(3MeBn)-Glu-pro-Asp-Trp-Leu-Thr-Trp-Glu(NH-Apr-O2Oc-DOTA′)-Cys]-NH2

- pIC50: > 8 pic50
B10: 3BP-3733 (peptide)
peptide: Ac-VFCE[dP]DWLTWE([Apr-AEEA-DOTA])C-NH2
modifications: linker 3-12 via 3MeBn; reading uncertain
notes: also called Ac-Val-Phe-[Cys(3MeBn)-Glu-pro-Asp-Trp-Leu-Thr-Trp-Glu(NH-Apr-O2Oc-DOTA′)-Cys]-NH2
